# In the supplement of paper PMC10065799, “High-throughput profiling of sequence recognition by tyrosine kinases and SH2 domains using bacterial peptide display” (eLife, 2023):
# Tested on: c-Src
# Test: phosphorylation enrichment, bacterial display (enrichment ratio); higher = better substrate or ligand; peptides without Tyr show the background
# 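Note: 11-residue human phosphosite peptides and single-mutation variants displayed on the E. coli surface, counted by deep sequencing, each peptide's frequency after selection divided by its frequency in the unselected input library; frequency after pTyr selection over input frequency; kinase dosed for 20-30% of maximal phosphorylation in three min.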
row,Sequence,phosphorylation enrichment
1,AVRFIYTIDGS [DCX_Y105_G100A_YF],1.55
2,EPFELYCEMGS [CBL_Y371_Q367P_YF],1.21
3,DPHQQYYIAMD [TBX15_Y159],1.55
4,ATQDDYVLEVR [PTPRZ1_Y2179],0.601
5,NVTGHYISPFH [PPA2_Y59],0.362
6,FYVVRYCWLRR [MPZ_Y181],0.612
7,AGDGRYEVLFL [SEMA3F_Y478_A474G],0.545
8,EVASVYQSYQP [MAVS_Y92],7.09
9,RLRKYYLGKYL [KLB_Y906],0.701
10,TGNGFYFRVFS [MYBPC3_Y1136_I1131T_YF],0.374
11,PVKTPYSLKRW [BMPR2_Y979_R974P],0.987
12,LTNDRYLATLT [IL6ST_Y396],0.533
13,STKELYEKYMI,0.821
14,VLALWYFFLTN [ZDHHC23_Y127_H132N_YF],0.654
15,GPTLSYGRDGR [MATR3_Y158],0.332
16,RGKDNYETSQL [SPP1_Y225_S224N],0.681
17,SLDLSYYPTSS [EMD_Y181],0.583

row,Sequence,phosphorylation enrichment
1,VPFAQYLAMNK [HARS1_Y138_R137Q],0.44
2,PYRFIYMAVQH [PTPN11_Y515_Q510P],3.36
3,QITQVCGFYDE [PPP2CA_Y127_Y127C],0.823
4,TVQIMYGCDVG [HLA-A_Y123_I119V],0.47
5,SIFKDYFRFNF [PLA2G2D_Y85_YF],0.643
6,KIKLNYTLPQD [NRAP_Y523_N519I],0.454
7,EFEGLYQEGGG [TMEM159_Y159],0.658
8,EEQKKYFNAMK [SCN5A_Y1494_YF],0.479
9,TEDELYQLFLQ [RASGRP2_Y378_S381F],4.23
10,SLKEFYGEDAK [ALDH3A1_Y272],0.44
11,FPQARYHWLVL [APTX_Y214_K211Q_YF],0.522
12,FADIAYNYHHG [PAH_Y166_R169H],0.638
13,DHFNQYEQQKM [CHD7_Y75_YF],0.414
14,ALAPKYHGGGG [HBB_Y146_H144P],0.389
15,NFDRVYIFHLR [MYOF_Y1137_YF],0.615
16,KYLENYYDLKK [MMP3_Y41],1.15

# Tested on: Fer (mouse)
# Test: as above
row,Sequence,phosphorylation enrichment
1,AVRFIYTIDGS [DCX_Y105_G100A_YF],0.529
2,EPFELYCEMGS [CBL_Y371_Q367P_YF],0.749
3,DPHQQYYIAMD [TBX15_Y159],0.52
4,ATQDDYVLEVR [PTPRZ1_Y2179],0.497
5,NVTGHYISPFH [PPA2_Y59],0.325
6,FYVVRYCWLRR [MPZ_Y181],0.51
7,AGDGRYEVLFL [SEMA3F_Y478_A474G],4.36
8,EVASVYQSYQP [MAVS_Y92],2.7
9,RLRKYYLGKYL [KLB_Y906],0.538
10,TGNGFYFRVFS [MYBPC3_Y1136_I1131T_YF],0.543
11,PVKTPYSLKRW [BMPR2_Y979_R974P],0.609
12,LTNDRYLATLT [IL6ST_Y396],0.568
13,STKELYEKYMI,5.61
14,VLALWYFFLTN [ZDHHC23_Y127_H132N_YF],0.595
15,GPTLSYGRDGR [MATR3_Y158],0.306
16,RGKDNYETSQL [SPP1_Y225_S224N],0.541
17,SLDLSYYPTSS [EMD_Y181],0.507

row,Sequence,phosphorylation enrichment
1,VPFAQYLAMNK [HARS1_Y138_R137Q],0.406
2,PYRFIYMAVQH [PTPN11_Y515_Q510P],2.9
3,QITQVCGFYDE [PPP2CA_Y127_Y127C],0.856
4,TVQIMYGCDVG [HLA-A_Y123_I119V],0.611
5,SIFKDYFRFNF [PLA2G2D_Y85_YF],0.428
6,KIKLNYTLPQD [NRAP_Y523_N519I],0.513
7,EFEGLYQEGGG [TMEM159_Y159],0.585
8,EEQKKYFNAMK [SCN5A_Y1494_YF],0.341
9,TEDELYQLFLQ [RASGRP2_Y378_S381F],8.85
10,SLKEFYGEDAK [ALDH3A1_Y272],0.588
11,FPQARYHWLVL [APTX_Y214_K211Q_YF],0.539
12,FADIAYNYHHG [PAH_Y166_R169H],0.443
13,DHFNQYEQQKM [CHD7_Y75_YF],0.415
14,ALAPKYHGGGG [HBB_Y146_H144P],0.332
15,NFDRVYIFHLR [MYOF_Y1137_YF],0.523
16,KYLENYYDLKK [MMP3_Y41],0.513

# Target: EPHB1 (UniProt P54762)
# Test: as above
# Sequence of EPHB1 (P54762 whole entry, looked up): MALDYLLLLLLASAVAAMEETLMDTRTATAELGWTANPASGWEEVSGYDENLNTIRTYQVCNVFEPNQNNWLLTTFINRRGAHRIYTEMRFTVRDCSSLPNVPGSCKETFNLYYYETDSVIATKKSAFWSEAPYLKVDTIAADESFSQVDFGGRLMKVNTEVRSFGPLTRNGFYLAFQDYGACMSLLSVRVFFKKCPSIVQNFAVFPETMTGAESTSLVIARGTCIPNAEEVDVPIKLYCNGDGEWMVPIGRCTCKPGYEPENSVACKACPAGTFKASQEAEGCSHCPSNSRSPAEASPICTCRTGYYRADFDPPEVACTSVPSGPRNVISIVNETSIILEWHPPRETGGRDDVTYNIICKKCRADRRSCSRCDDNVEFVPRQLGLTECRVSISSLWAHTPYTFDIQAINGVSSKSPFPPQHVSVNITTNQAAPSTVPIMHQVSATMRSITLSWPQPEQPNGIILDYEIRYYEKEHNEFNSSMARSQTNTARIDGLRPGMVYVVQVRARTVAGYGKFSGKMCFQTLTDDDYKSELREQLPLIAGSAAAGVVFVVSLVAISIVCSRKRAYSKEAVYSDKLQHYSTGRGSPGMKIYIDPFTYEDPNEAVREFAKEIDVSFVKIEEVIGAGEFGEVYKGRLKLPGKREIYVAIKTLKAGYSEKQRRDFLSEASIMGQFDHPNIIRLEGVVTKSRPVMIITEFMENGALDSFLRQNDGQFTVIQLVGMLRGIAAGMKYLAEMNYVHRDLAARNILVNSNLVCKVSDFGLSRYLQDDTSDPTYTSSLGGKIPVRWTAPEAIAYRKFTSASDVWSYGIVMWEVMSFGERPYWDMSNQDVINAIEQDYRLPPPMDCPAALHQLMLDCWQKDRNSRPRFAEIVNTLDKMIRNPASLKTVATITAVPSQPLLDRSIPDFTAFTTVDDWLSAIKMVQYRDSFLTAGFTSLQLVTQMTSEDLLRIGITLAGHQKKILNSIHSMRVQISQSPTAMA
row,Sequence,phosphorylation enrichment
1,AVRFIYTIDGS [DCX_Y105_G100A_YF],0.574
2,EPFELYCEMGS [CBL_Y371_Q367P_YF],2.64
3,DPHQQYYIAMD [TBX15_Y159],0.735
4,ATQDDYVLEVR [PTPRZ1_Y2179],0.632
5,NVTGHYISPFH [PPA2_Y59],0.423
6,FYVVRYCWLRR [MPZ_Y181],0.496
7,AGDGRYEVLFL [SEMA3F_Y478_A474G],0.658
8,EVASVYQSYQP [MAVS_Y92],0.54
9,RLRKYYLGKYL [KLB_Y906],0.429
10,TGNGFYFRVFS [MYBPC3_Y1136_I1131T_YF],0.65
11,PVKTPYSLKRW [BMPR2_Y979_R974P],0.499
12,LTNDRYLATLT [IL6ST_Y396],0.625
13,STKELYEKYMI,0.504
14,VLALWYFFLTN [ZDHHC23_Y127_H132N_YF],0.746
15,GPTLSYGRDGR [MATR3_Y158],0.276
16,RGKDNYETSQL [SPP1_Y225_S224N],0.662
17,SLDLSYYPTSS [EMD_Y181],0.614

row,Sequence,phosphorylation enrichment
1,VPFAQYLAMNK [HARS1_Y138_R137Q],0.488
2,PYRFIYMAVQH [PTPN11_Y515_Q510P],3.56
3,QITQVCGFYDE [PPP2CA_Y127_Y127C],1.1
4,TVQIMYGCDVG [HLA-A_Y123_I119V],0.676
5,SIFKDYFRFNF [PLA2G2D_Y85_YF],0.523
6,KIKLNYTLPQD [NRAP_Y523_N519I],0.49
7,EFEGLYQEGGG [TMEM159_Y159],0.576
8,EEQKKYFNAMK [SCN5A_Y1494_YF],0.459
9,TEDELYQLFLQ [RASGRP2_Y378_S381F],1.05
10,SLKEFYGEDAK [ALDH3A1_Y272],0.434
11,FPQARYHWLVL [APTX_Y214_K211Q_YF],0.568
12,FADIAYNYHHG [PAH_Y166_R169H],0.387
13,DHFNQYEQQKM [CHD7_Y75_YF],0.457
14,ALAPKYHGGGG [HBB_Y146_H144P],0.315
15,NFDRVYIFHLR [MYOF_Y1137_YF],0.545
16,KYLENYYDLKK [MMP3_Y41],7.15

# Tested on: AncSZ
# Test: as above
row,Sequence,phosphorylation enrichment
1,AVRFIYTIDGS [DCX_Y105_G100A_YF],1.32
2,EPFELYCEMGS [CBL_Y371_Q367P_YF],1.68
3,DPHQQYYIAMD [TBX15_Y159],1.05
4,ATQDDYVLEVR [PTPRZ1_Y2179],1.45
5,NVTGHYISPFH [PPA2_Y59],0.552
6,FYVVRYCWLRR [MPZ_Y181],0.869
7,AGDGRYEVLFL [SEMA3F_Y478_A474G],0.94
8,EVASVYQSYQP [MAVS_Y92],0.864
9,RLRKYYLGKYL [KLB_Y906],0.601
10,TGNGFYFRVFS [MYBPC3_Y1136_I1131T_YF],1.1
11,PVKTPYSLKRW [BMPR2_Y979_R974P],1.04
12,LTNDRYLATLT [IL6ST_Y396],0.761
13,STKELYEKYMI,0.805
14,VLALWYFFLTN [ZDHHC23_Y127_H132N_YF],1.16
15,GPTLSYGRDGR [MATR3_Y158],0.435
16,RGKDNYETSQL [SPP1_Y225_S224N],0.857
17,SLDLSYYPTSS [EMD_Y181],1.42

row,Sequence,phosphorylation enrichment
1,VPFAQYLAMNK [HARS1_Y138_R137Q],0.685
2,PYRFIYMAVQH [PTPN11_Y515_Q510P],1.92
3,QITQVCGFYDE [PPP2CA_Y127_Y127C],1.21
4,TVQIMYGCDVG [HLA-A_Y123_I119V],0.945
5,SIFKDYFRFNF [PLA2G2D_Y85_YF],1.18
6,KIKLNYTLPQD [NRAP_Y523_N519I],0.965
7,EFEGLYQEGGG [TMEM159_Y159],0.974
8,EEQKKYFNAMK [SCN5A_Y1494_YF],0.882
9,TEDELYQLFLQ [RASGRP2_Y378_S381F],3.06
10,SLKEFYGEDAK [ALDH3A1_Y272],0.929
11,FPQARYHWLVL [APTX_Y214_K211Q_YF],0.913
12,FADIAYNYHHG [PAH_Y166_R169H],0.643
13,DHFNQYEQQKM [CHD7_Y75_YF],0.834
14,ALAPKYHGGGG [HBB_Y146_H144P],0.314
15,NFDRVYIFHLR [MYOF_Y1137_YF],1.19
16,KYLENYYDLKK [MMP3_Y41],0.922
